Series [1] addresses T1, Hera_RBD (Thermus thermophilus, UniProt O07897 424-510).
T1 sequence: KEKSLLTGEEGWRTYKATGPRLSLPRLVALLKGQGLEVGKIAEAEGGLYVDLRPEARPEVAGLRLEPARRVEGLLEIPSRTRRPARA
The experiment in a line: NMR; CSP pattern similar to 21mer; Anisotropy: 50 mM Tris/HCl pH 7.5, 150 mM NaCl, 5 mM MgCl2 (Fig 2), 25 C, 50 nM RNA; EMSA: same Tris/NaCl, 12% glycerol, 25 C; NMR: 25 mM Bis-Tris/HCl pH 6.0, 50 mM NaCl, 10% D2O, 37 C. The settings on record: protein: recombinant; hairpin with 5' single strand. (Mobility shift assays separate free from complexed probe on a gel.)

Series [2] has as its target T2, Hera_RBD_dC-tail (Thermus thermophilus, UniProt O07897 424-491, del492-510).
T2 sequence: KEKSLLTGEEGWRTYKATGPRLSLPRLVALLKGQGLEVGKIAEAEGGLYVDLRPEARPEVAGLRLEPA
The experiment in a line: fluorescence anisotropy; Anisotropy: 50 mM Tris/HCl pH 7.5, 150 mM NaCl, 5 mM MgCl2 (Fig 2), 25 C, 50 nM RNA; EMSA: same Tris/NaCl, 12% glycerol, 25 C; NMR: 25 mM Bis-Tris/HCl pH 6.0, 50 mM NaCl, 10% D2O, 37 C. The settings on record: protein: recombinant; label: 5'-fluorescein. For orientation: Fluorescence polarisation rises when a labelled molecule tumbles more slowly, as on binding a larger partner.

The target of series [3] is T1, Hera_RBD. Described as above. The settings on record: protein: recombinant; label: 5'-fluorescein.
Series [4] addresses T1, Hera_RBD. The experiment in a line: NMR; Kd1, RBD core resonances (424-493); Anisotropy: 50 mM Tris/HCl pH 7.5, 150 mM NaCl, 5 mM MgCl2 (Fig 2), 25 C, 50 nM RNA; EMSA: same Tris/NaCl, 12% glycerol, 25 C; NMR: 25 mM Bis-Tris/HCl pH 6.0, 50 mM NaCl, 10% D2O, 37 C. To be noted: protein: recombinant; hairpin with 5' single strand.
Series [5] deals with T1, Hera_RBD. Nature of the series: ITC; 5 mM Mg2+; estimate, no initial baseline; Anisotropy: 50 mM Tris/HCl pH 7.5, 150 mM NaCl, 5 mM MgCl2 (Fig 2), 25 C, 50 nM RNA; EMSA: same Tris/NaCl, 12% glycerol, 25 C; NMR: 25 mM Bis-Tris/HCl pH 6.0, 50 mM NaCl, 10% D2O, 37 C. To be noted: protein: recombinant; label: none (NMR, ITC); 5'-fluorescein (EMSA); hairpin with 5' single strand.

In series [6] the target is T3, GST-Hera_RBD (Thermus thermophilus, UniProt O07897 424-510).
T3 sequence: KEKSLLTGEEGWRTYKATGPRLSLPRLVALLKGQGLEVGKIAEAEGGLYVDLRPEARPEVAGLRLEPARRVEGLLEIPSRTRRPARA
The experiment in a line: EMSA; 6 uM RNA; 12% glycerol; Anisotropy: 50 mM Tris/HCl pH 7.5, 150 mM NaCl, 5 mM MgCl2 (Fig 2), 25 C, 50 nM RNA; EMSA: same Tris/NaCl, 12% glycerol, 25 C; NMR: 25 mM Bis-Tris/HCl pH 6.0, 50 mM NaCl, 10% D2O, 37 C. The settings on record: protein: recombinant; tags: N-terminal GST; label: none (NMR, ITC); 5'-fluorescein (EMSA); hairpin with 5' single strand.

Series [7] has as its target T1, Hera_RBD. Nature of the series: NMR; pH 6.0, 50 mM NaCl, 37 C; Anisotropy: 50 mM Tris/HCl pH 7.5, 150 mM NaCl, 5 mM MgCl2 (Fig 2), 25 C, 50 nM RNA; EMSA: same Tris/NaCl, 12% glycerol, 25 C; NMR: 25 mM Bis-Tris/HCl pH 6.0, 50 mM NaCl, 10% D2O, 37 C. The settings on record: protein: recombinant.
For series [8], the target named is T4, Hera full-length (Thermus thermophilus, UniProt O07897 1-510).
T4 sequence: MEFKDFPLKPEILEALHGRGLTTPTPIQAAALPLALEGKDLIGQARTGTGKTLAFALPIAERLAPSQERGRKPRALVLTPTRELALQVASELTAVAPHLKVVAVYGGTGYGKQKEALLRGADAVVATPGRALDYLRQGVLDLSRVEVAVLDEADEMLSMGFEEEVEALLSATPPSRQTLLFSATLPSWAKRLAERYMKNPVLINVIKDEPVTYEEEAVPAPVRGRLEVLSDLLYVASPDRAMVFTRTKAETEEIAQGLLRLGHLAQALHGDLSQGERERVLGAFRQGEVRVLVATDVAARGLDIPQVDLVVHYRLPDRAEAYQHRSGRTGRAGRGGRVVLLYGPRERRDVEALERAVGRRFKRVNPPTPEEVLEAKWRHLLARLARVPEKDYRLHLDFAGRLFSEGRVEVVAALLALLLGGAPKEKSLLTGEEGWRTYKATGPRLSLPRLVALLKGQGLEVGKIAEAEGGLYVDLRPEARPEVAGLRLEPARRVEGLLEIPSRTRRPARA
The experiment in a line: fluorescence anisotropy; 1 uM Hera; complex forms instantaneously; Anisotropy: 50 mM Tris/HCl pH 7.5, 150 mM NaCl, 5 mM MgCl2 (Fig 2), 25 C, 50 nM RNA; EMSA: same Tris/NaCl, 12% glycerol, 25 C; NMR: 25 mM Bis-Tris/HCl pH 6.0, 50 mM NaCl, 10% D2O, 37 C. To be noted: protein: recombinant; chain copies: 2; label: 3'-fluorescein on 9mer; 9 bp duplex (strand 1 nt 3-11) plus 3' hairpin; 5' overhang 2 nt.

Series [9] deals with T1, Hera_RBD. Nature of the series: NMR; core CSPs, none in C-tail; Anisotropy: 50 mM Tris/HCl pH 7.5, 150 mM NaCl, 5 mM MgCl2 (Fig 2), 25 C, 50 nM RNA; EMSA: same Tris/NaCl, 12% glycerol, 25 C; NMR: 25 mM Bis-Tris/HCl pH 6.0, 50 mM NaCl, 10% D2O, 37 C. The settings on record: protein: recombinant.

Turning to GGGUUGGGCUAUUCGCCCAUU (structured_RNA) [21mer_modloop], the binding result in [1] is given as “binds”.

In the case of GGGC (ssRNA) [4mer], the Kd – broadly, a measure of binding affinity in units of concentration – in [2] was found to be 8 µM; in series [3], 11 µM.

Take CACUUGGGCUGUUCGCCCAUU (structured_RNA) [21mer_mod]: the Kd in [4] is about 52.9 µM.

As for GGGUUGGGCUGUUCGCCCAUU (structured_RNA) [21mer], the Kd in series [5] was about 40 µM; in [6] it was about 23 µM; in [7] (label: none (NMR, ITC), 5'-fluorescein (EMSA), hairpin with 5' single strand) it was about 6 µM.

B1: 32/9mer (mixed)
RNA 1: GCAGGUCCCAAGGGUUGGGCUGUUCGCCCAUU
RNA 2: UUGGGACCU
Consider B1, for which the binding result in series [8] was “binds”.

Regarding GUUGGGCUGUUCGCCCAUU (structured_RNA) [19mer], the Kd in series [7] (hairpin) is about 75 µM.

As for GGGCC (ssRNA) [5mer], the binding result in series [9] was “binds”.
